# B1: rE2'-3': recombinant IgE peptide Gln 301-Arg 376 (protein, UniProt P01854 301-376, looked up, fragment)
# chain: VTHPHLPRALMRSTTKTSGPRAAPEVYAFATPEWPGSRDKRTLACLIQNFMPEDISVQWLHNEVQLPDARHSTTQP
# B2: rE2-3: recombinant IgE peptide Asp 218-Pro 439 (CH2 and CH3) (protein, UniProt P01854 218-439, looked up, fragment)
# chain: SAYLSRPSPFDLFIRKSPTITCLVVDLAPSKGTVNLTWSRASGKPVNHSTRKEEKQRNGTLTVTSTLPVGTRDWIEGETYQCRVTHPHLPRALMRSTTKTSGPRAAPEVYAFATPEWPGSRDKRTLACLIQNFMPEDISVQWLHNEVQLPDARHSTTQPRKTKGSGFFVFSRLEVTRAEWEQKDEFICRAVHEAASPSQTVQRAVSVNPGLAGGSAQSQRAP
# B3: rE2: recombinant IgE peptide Asp 218-Val 336 (CH2) (protein, UniProt P01854 218-336, looked up, fragment)
# chain: SAYLSRPSPFDLFIRKSPTITCLVVDLAPSKGTVNLTWSRASGKPVNHSTRKEEKQRNGTLTVTSTLPVGTRDWIEGETYQCRVTHPHLPRALMRSTTKTSGPRAAPEVYAFATPEWPG
# Legend:
# [1] = system: Fc receptors of mast cells; conditions: cited from earlier work; for blocking activity: reported by Bennich
# [2] = system: FcER2 positive RPMI 8866 B cells; experiment: Indirect immunofluorescence binding of rE peptides to RPMI 8866 B cells (FACScan); parameters: species or system human; conditions: for % positive cells: RPMI 8866 B cells, indirect immunofluorescence, 0.1-200 μg/ml ligand, 40 min 4° C., mean ±S.D. of 9 experiments; for binding to FcER2 positive RPMI 8866 B cells (in words): further indirect immunofluorescence studies
# Procedure: RPMl 8866 cells were incubated with different concentrations of rE peptides and indirect immuno-fluorescence was performed.
# For indirect immunofluorescence the results of which are summarised in Table VII, 0.5×10^6 RPMI 8866 cells (>99% FcER2 positive) in staining buffer (RPMI 1640 - 2.5% fetal bovine serum, containing 0.01% azide) were incubated with various concentrations (0.1-200 μg/ml) of purified rE fragments or native IgE(PS) for 40 minutes at 4° C. After washing, the cells were incubated for 30 minutes at 4° C. with the appropriate fluorescein isothiocyanate (FITC)-conjugated anti-Fc mAB or with an affinity-purified goat anti-human IgE antibody (10 μg/ml). After extensive washing, the percentage of cells binding IgE or the rE fragments was evaluated by a FACScan (Becton Dickinson, Mountain View, Calif.).
molecule,measurement,setting,value
Asp-Ser-Asn-Pro-Arg (DSNPR; printed: Asp-Ser-Asn-Pro-Arg),blocking activity,[1],neither of the peptides Asp-Ser-Asp-Pro-Arg nor Asp-Ser-Asn-Pro-Arg has any blocking activity
"Asp-Ser-Asp-Pro-Arg (DSDPR; printed: Asp-Ser-Asp-Pro-Arg) [HEPP, Human Immunoglobulin E Polypeptide, pentapeptide from IgE heavy chain 330 to 334]",blocking activity,[1],neither of the peptides Asp-Ser-Asp-Pro-Arg nor Asp-Ser-Asn-Pro-Arg has any blocking activity
same,specific activity,[1]; reported,low
B1,% positive cells,[2],2 ± 1%
same,binding to FcER2 positive RPMI 8866 B cells (in words),[2],no detectable binding
B2,% positive cells,[2],3 ± 1%
same,binding to FcER2 positive RPMI 8866 B cells (in words),[2],no detectable binding
B3,% positive cells,[2],2 ± 1%
same,binding to FcER2 positive RPMI 8866 B cells (in words),[2],no detectable binding
